Columns and labels:
[1] = target: T1, Recombinant mouse uPAR-Fc (R&D Systems, Cat. No. 531-PA-100) (mouse, UniProt P35456 24-297, limits assumed); test: SPR (Biacore), mouse uPAR-Fc captured on chip; Table 32 prints 0.15
T1 construct: not shown: Fc of the bought fusion (captured with the human antibody capture kit); not described
T1 sequence (looked up): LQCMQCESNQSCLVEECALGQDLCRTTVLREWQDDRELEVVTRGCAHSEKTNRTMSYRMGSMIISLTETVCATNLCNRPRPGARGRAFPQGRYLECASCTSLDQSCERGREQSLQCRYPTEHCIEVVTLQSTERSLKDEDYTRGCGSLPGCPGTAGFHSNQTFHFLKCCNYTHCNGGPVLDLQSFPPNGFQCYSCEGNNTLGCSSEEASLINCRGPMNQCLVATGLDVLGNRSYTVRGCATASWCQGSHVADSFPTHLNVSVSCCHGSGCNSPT

[2] = target: T1, Recombinant mouse uPAR-Fc (R&D Systems, …); test: SPR (Biacore), mouse uPAR-Fc captured on anti-human antibody chip
[3] = target: T2, mouse uPAR on cells (mouse, UniProt P35456 24-298); test: flow cytometry on CT26 cells (express mouse uPAR), anti-His detection
T2 construct: whole, on cells; also called Ms-uPAR; mouse uPAR (CD87)
T2 sequence (looked up): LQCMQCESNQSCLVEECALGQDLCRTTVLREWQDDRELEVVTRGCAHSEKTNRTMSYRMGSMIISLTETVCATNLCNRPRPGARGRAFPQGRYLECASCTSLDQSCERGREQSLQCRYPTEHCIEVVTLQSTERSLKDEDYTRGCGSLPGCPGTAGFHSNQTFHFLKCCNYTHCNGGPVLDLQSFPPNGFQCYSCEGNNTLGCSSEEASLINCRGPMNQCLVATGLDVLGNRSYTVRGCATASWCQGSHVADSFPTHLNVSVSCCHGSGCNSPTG

[4] = target: T2, mouse uPAR on cells; test: flow cytometry on EMT6 cells (express mouse uPAR), anti-His detection
[5] = target: T2, mouse uPAR on cells; test: flow cytometry on MC38 cells (express mouse uPAR), anti-His detection
[6] = target: T2, mouse uPAR on cells; test: flow cytometry on 4T1 cells (express mouse uPAR), anti-His detection
[7] = target: IL-2/IL-15 receptor on primary mouse splenocytes (mouse); test: cell-based or functional assay
[8] = target: T3, Human uPAR DIII domain HisAvi Tag (human, biotinylated (site not stated)); test: BLI (Octet), biotinylated domain on SA sensor, antibody 200 nM
T3 chain: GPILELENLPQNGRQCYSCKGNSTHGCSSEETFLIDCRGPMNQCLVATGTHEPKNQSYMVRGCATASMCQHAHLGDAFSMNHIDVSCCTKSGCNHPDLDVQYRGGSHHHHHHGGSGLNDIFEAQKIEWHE

[9] = target: Human uPAR DII-DIII domain HisAvi Tag (human, biotinylated (site not stated)); test: as above
[10] = target: T4, biotinylated human uPAR (human, UniProt Q03405 23-303, limits assumed, biotinylated (site not stated)); test: BLI (Octet) on biotinylated human uPAR; row 'None': no first antibody
[11] = target: T4, biotinylated human uPAR; test: BLI (Octet) competition on biotinylated human uPAR; competitor (first antibody): M1
[12] = target: T4, biotinylated human uPAR; test: BLI (Octet) competition on biotinylated human uPAR; competitor (first antibody): ATN-368 (ATN-658)
[13] = target: T5, human uPAR expressed on HEK293 cells (human, UniProt Q03405 23-305); test: flow cytometry, HEK293 cells expressing human uPAR, 100 nM uPA present
T5 construct: whole, on cells; also called Hu-uPAR

[14] = target: T6, histidine-tagged human uPAR (Sino#10925-H08H) (human, UniProt Q03405 23-303); test: BLI (Octet), antibody on anti-mouse Fc sensor, uPAR in solution
T6 construct: also called uPAR-His

[15] = target: T6, histidine-tagged human uPAR …; test: BLI (Octet), uPAR on sensor, antibody in solution (avidity)
[16] = target: T4, biotinylated human uPAR; test: BLI (Octet) competition on biotinylated human uPAR; competitor (first antibody): M5

B1: Mouse uPA-ATF His6 (ligand)
chain: GSVLGAPDESNCGCQNGGVCVSYKYFSRIRRCSCPRKFQGEHCEIDASKTCYHGNGDSYRGKANTDTKGRPCLAWNAPAVLQKPYNAHRPDAISLGLGKHNYCRNPDNQKRPWCYVQIGLRQFVQECMVHDCHHHHHH
notes: also called 104
- Kd [1]: 0.14 nM
- Kd [2]: 0.15 nM
- koff [2]: 0.00032 s⁻¹
- kon [2]: 2.2e+06 M⁻¹ s⁻¹

B2: Mouse cpIL-2:IL-2Ra:mouse uPA-ATF-His6 (other)
chain: SKSFQLEDAENFISNIRVTVVKLKGSDNTFECQFDDESATVVDFLRRWIAFCQSIISTSPQGGSSSTQQQQQHLEQLLMDLQELLSRMENYRNLKLPRMLTFKFYLPKQATELKDLQCLEDELGPLRHVLDLTQGSGGGSELCLYDPPEVPNATFKALSYKNGTILNCECKRGFRRLKELVYMRCLGNSWSSNCQCTSNSHDKSRKQVTAQLEHQKEQQTTTDMQKPTQSMHQENLTGHCREPPPWKHEDSKRIYHFVEGQSVHYECIPGYKALQRGPAISICKMKCGKTGWTQPQLTCVDGGSGGGSVLGAPDESNCGCQNGGVCVSYKYFSRIRRCSCPRKFQGEHCEIDASKTCYHGNGDSYRGKANTDTKGRPCLAWNAPAVLQKPYNAHRPDAISLGLGKHNYCRNPDNQKRPWCYVQIGLRQFVQECMVHDCHHHHHH
notes: also called 101
- EC50 [3]: 1.3 nM
- EC50 [4]: 0.41 nM
- EC50 [5]: 0.71 nM
- EC50 [6]: 1 nM
- pSTAT5 EC50, mouse NK cells [7]: 20 nM
- pSTAT5 EC50, mouse Tregs [7]: 17 nM
- pSTAT5 EC50, mouse memory CD8 T cells [7]: 27 nM
- Kd [2]: 0.19 nM
- koff [2]: 0.00026 s⁻¹
- kon [2]: 1.3e+06 M⁻¹ s⁻¹

B3: M1 (antibody, V domains shown)
VH: EVQLQQSGAELVRPGASVKLSCTASGFNIKDEYINWVKQRPEQGLEWIGWIDPENGDTEYASKFQGKATITADTSSNTAYLQLSSLTSEDTAVYYCTGGNYVGWFPYWGQGTLVTVSA
VL: QIVLTQSPAIMSASPGEKVTMTCSASSSVSYMHWYQQKSGTSPKRWLYDTSKLASGVPARFSGSGSGTSYSLTISSMEAEDAATYYCQQWSSNPPYTFGGGTKLEIK
notes: Mouse hybridoma antibody; also called anti-uPAR antibody M1; parental M1
- binding result [8]: binds
- binding result [9]: binds
- response in competition assay [10]: 0.305
- response in competition assay [11]: -0.0441
- response in competition assay [12]: -0.0232
- EC50 [13]: 0.66 nM
- Kd [14]: 0.511 nM
- koff [14]: 0.00034 s⁻¹
- kon [14]: 664000 M⁻¹ s⁻¹
- Kd [15]: < 0.001 nM
- koff [15]: < 1e-07 s⁻¹
- kon [15]: 448000 M⁻¹ s⁻¹
- response in competition assay [16]: 0.365

Source: US20220340678A1 (MURAL ONCOLOGY, published 2022)
